Results from publication PMC8616027.

Experiments:
[1] = test system: HU (HU-1/HU-2, hupA + hupB co-expressed) (Escherichia coli); assay: EMSA; conditions: 10 min at 23 C, then 0.8% agarose gel electrophoresis, bound [3H]HU counted in gel slices; binding buffer composition, salt and pH not in the material …; scale: HU dimers bound per plasmid at saturation
[2] = test system: HU (HU-1/HU-2, hupA + hupB co-expressed) (Escherichia coli); assay: competition; conditions: 10 min at 23 C, then 0.8% agarose gel electrophoresis, bound [3H]HU counted in gel slices; binding buffer composition, salt and pH not in the material …

Substance | binding signal [1] | binding signal (fold affinity over linear DNA) [2] | binding signal (fold affinity over relaxed DNA) [2] | binding signal (fold affinity over relaxed pRLM4) [2]
linear pRLM4 | 1000 | – | – | –
negatively supercoiled pRLM4 (sigma -0.06) | 1000 | 20 | > 10 | 2
